Patent CN111748032A (JIANGSU PROVINCIAL CENTER FOR DISEASE CONTROL AND …, dated 2020)
Residue numbers refer to the chain shown, from its start.

B1: JS01 (antibody, V domains shown)
VH: QVQLVESGAEVKKPGSSVKVSCKASGGTFSSYAISWVRQAPGQGLEWMGGIIPIFGTANYAQKFQGRVTITADESTSTAYMELSSLRSEDTAVYYCARGGWRSSGYHDYSYYGMDVWGQGTTVTVSS
VL: not shown
B2: JS13 (antibody, V domains shown)
VH: QVQLVQSGAEVKKPGSSVKVSCKASGGTFSSYAISWVRQAPGQGLEWMGGIIPIFGTANYAQKFQGRVTITADESTSTAYMELSSLRSEDTAVYYCARGGWVICSSTSCYTKYSYYGMDVWGQGTTVTVSS
VL: QSVLTQPPSVSAAPGQKVTISCSGSSSNIGNNYVSWYQQLPGTAPKLLIYDNNKRPSGIPDRFSGSKSGTSATLGITGLQTGDEADYYCGTWDSSLIARLFGGGTKLTVL
B3: JS14 (antibody, V domains shown)
VH: EVQLLESGGGVVQPGRSLRLSCAASGFTFSSYGMHWVRQAPGKGLEWVAVIWYDGSNKYYADSVKGRFTISRDNSKNTLYLQMNSLRAEDTAVYYCARDGSGSYYWGSLDYWGQGTLVTVSS
VL: not shown
B4: JS05 (antibody, V domains shown)
VH: EVQLLESGGGVVQPGRSLRLSCAASGFIFSSYGMHWVRQAPGKGLEWVAVIWYDGSNKYYADSVKGRFTISRDNSKNTLYLQMNSLRAEDTAVYYCARDLRGPTGWTFDYWGQGTLVTVSS
VL: ENVLTQSPATLSLSPGERATLSCRASQSVSNYLAWYQQRPGQAPRLLIYDSSNRATGIPARFSGSGSGTDFTLTISSLEPEDFAVYYCQHRSNWKITFGQGTRLEIK
B5: JS12 (antibody, V domains shown)
VH: B3 VH
VL: B4 VL with N31S, R39K, D50G, S51A, H90Q, K95P, I96W, R103K, L104V

Target: 重组SARS-CoV2核蛋白(NP) (SARS-CoV-2, UniProt P0DTC9 1-419)
Assay: double-antibody sandwich lateral flow strip, paired with JS08, recombinant NP

| Binder | 检测限 (detection limit) [ng/mL] |
| --- | --- |
| B1 | < 2 |
| B2 | < 2 |
| B3 | < 2 |
| B4 | < 2 |
| B5 | < 2 |
